Test results from the FLAb antibody collection (doi:10.1101/2023.12.08.570889).
Numbering of substitutions follows the chain as printed. One block for each binder: values may come before it.

Molecular target: TSLP, Q969D9
Assay: Kd (SPR)

B1: unnamed (protein)
chain 1: QMQLVESGGGVVQPGRSLRLSCAASGFTFRTYGMHWVRQAPGKGLEWVAVIWYDGSNKHYADSVKGRFTITRDNSKNTLNLQMNSLRAEDTAVYYCARAPRYDDDWEAFDVWGQGTMVTVSS
chain 2: SYVLTQPPSVSVAPGQTARITCGGNNLGSKSVHWYQQKPGQAPVLVVYDDSDRPSWIPERFSGSNSGNTATLTISRGEAGDEADYYCQVWDSSSDHVVFGGGTKLTVL
Kd: 82.7 nM

B2: unnamed (protein)
chain 1: B1 chain 1 with D104E, D105H, W106Y
chain 2: B1 chain 2
Kd: 168 nM

B4: unnamed (protein)
chain 1: B1 chain 1 with D103Y, D105Y, W106L
chain 2: B1 chain 2
Kd: 22.6 nM

B5: unnamed (protein)
chain 1: B1 chain 1 with D104Y, D105Y
chain 2: B1 chain 2
Kd: 175 nM

B7: unnamed (protein)
chain 1: B1 chain 1 with D104Y, D105Y, W106Y
chain 2: B1 chain 2
Kd: 138 nM

B8: unnamed (protein)
chain 1: B1 chain 1 with D104E, D105Y
chain 2: B1 chain 2
Kd: 84.9 nM

B10: unnamed (protein)
chain 1: B1 chain 1 with D104W, D105Y, W106V
chain 2: B1 chain 2
Kd: 54.2 nM

B11: unnamed (protein)
chain 1: B1 chain 1 with D103Y, D104E, D105A, W106Y
chain 2: B1 chain 2
Kd: 31 nM

B13: unnamed (protein)
chain 1: B1 chain 1 with D104E, D105T
chain 2: B1 chain 2
Kd: 141 nM

B15: unnamed (protein)
chain 1: B1 chain 1 with A99S, D104W, D105Y, W106Y
chain 2: B1 chain 2
Kd: 122 nM

B16: unnamed (protein)
chain 1: B1 chain 1 with D105Y, W106Y, E107D
chain 2: B1 chain 2
Kd: 163 nM

B17: unnamed (protein)
chain 1: B1 chain 1 with D103Y, D104E, D105Y
chain 2: B1 chain 2
Kd: 29.2 nM

B19: unnamed (protein)
chain 1: B1 chain 1 with D104E, D105E, W106Y
chain 2: B1 chain 2
Kd: 78.9 nM

The remaining binders from weak to strong by Kd, led by results:

Kd: 128 nM
B3: unnamed (protein)
chain 1: B1 chain 1 with D104W, D105T, W106Y
chain 2: B1 chain 2

Kd: 48.2 nM
B12: unnamed (protein)
chain 1: B1 chain 1 with D104W, D105Y, W106Y
chain 2: B1 chain 2

Kd: 33.5 nM
B6: unnamed (protein)
chain 1: B1 chain 1 with D103Y, D105A, W106Y
chain 2: B1 chain 2

Kd: 33.2 nM
B18: unnamed (protein)
chain 1: B1 chain 1 with D103Y, D105Y, W106Y
chain 2: B1 chain 2

Kd: 31.9 nM
B9: unnamed (protein)
chain 1: B1 chain 1 with D103Y, D104E, D105Y, W106L
chain 2: B1 chain 2

Kd: 23.6 nM
B14: unnamed (protein)
chain 1: B1 chain 1 with D103Y, D104W, D105Y
chain 2: B1 chain 2
